Kd data for two molecules are collected here from PMC8754651 (2021).

B1: human TFIIH p62 PH domain (PH-D) (residues 1–108) (domain or fragment)
chain: MATSSEEVLLIVKKVRQKKQDGALYLMAERIAWAPEGKDRFTISHMYADIKCQKISPEGKAKIQLQLVLHAGDTTNFHFSNESTAVKERDAVKDLLQQLLPKFKRKAN

Assay [1] has as its target human RPB6 (residues 1–127), full-length (human, UniProt P61218 1-127). Put plainly: NMR.
Assay [2] deals with B1. Put plainly: ITC.

Regarding B1, in assay [1], binding was put at a Kd of 4.13 µM.
The molecule MSDNEDNFDGDDADDVEEDEGLDD [human RPB6 (residues 1–24) F13A] gave a Kd in assay [2] of 18.1 µM.
